What was measured:
[1] = target: NHR peptide N46 (aa 536-581 of NHR) (HIV-1) (UniProt P04578); assay: ELISA; inhibition of 6-HB formation between N46 and C34
[2] = target: gp41 V38A, N42T (T20-resistant HIV-1 strain) (HIV-1)
[3] = target: gp41 L34S/D36G/E49K/E136G (HP23-resistant HIV-1 strain) (HIV-1)
[4] = target: gp41 V38E, N42S (T20-resistant HIV-1 strain) (HIV-1)
[5] = target: gp41 of the wild-type virus of the HP23-resistant panel (HIV-1)
[6] = target: gp41 E49K (HP23-resistant HIV-1 strain) (HIV-1)
[7] = target: gp41 V38A (T20-resistant HIV-1 strain) (HIV-1)
[8] = target: gp41 V38A, N42D (T20-resistant HIV-1 strain) (HIV-1)
[9] = target: gp41 E49K/N126K (HP23-resistant HIV-1 strain) (HIV-1)
[10] = target: gp41 of the WT virus of the T20-resistant panel (HIV-1)
[11] = target: gp41 D36G/E49K/N126K (HP23-resistant HIV-1 strain) (HIV-1)
[12] = target: gp41 Q79E (T2635-resistant HIV-1 strain) (HIV-1)
[13] = target: gp41 Q79E/N126K (T2635-resistant HIV-1 strain) (HIV-1)
[14] = target: gp41 A6V (T2635-resistant HIV-1 strain) (HIV-1)
[15] = target: gp41 Q66R/N113E (T2635-resistant HIV-1 strain) (HIV-1)
[16] = target: gp41 N113E (T2635-resistant HIV-1 strain) (HIV-1)
[17] = target: gp41 K90E/N126K (T2635-resistant HIV-1 strain) (HIV-1)
[18] = target: gp41 N126K (T2635-resistant HIV-1 strain) (HIV-1)
[19] = target: gp41 H3C (T2635-resistant HIV-1 strain) (HIV-1)
[20] = target: gp41 Q66R (T2635-resistant HIV-1 strain) (HIV-1)
[21] = target: gp41 K154Q (T2635-resistant HIV-1 strain) (HIV-1)
[22] = target: gp41 K90E (T2635-resistant HIV-1 strain) (HIV-1)
[23] = target: gp41 of the wild-type virus of the T2635-resistant panel (HIV-1)
[24] = target: NHR peptide N46 (aa 536-581 of NHR) (HIV-1) (UniProt P04578); assay: thermal denaturation followed by circular dichroism

Chain of NHR peptide N46 (aa 536-581 of NHR) (HIV-1) (P04578 536-581): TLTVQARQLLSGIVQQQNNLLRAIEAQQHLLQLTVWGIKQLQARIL

HP23
IC50 [1]: 3720 nM

HP23 (peptide)
IC50, inhibition of HIV-1 infection (p24 ELISA), T20-resistant panel, virus V38A, N42T; blocks gp41 NHR-CHR 6-HB formation [2]: 1.5 nM
IC50, inhibition of HIV-1 infection (p24 ELISA), HP23-resistant panel, virus L34S/D36G/E49K/E136G; blocks gp41 NHR-CHR 6-HB formation [3]: > 60 nM
IC50, inhibition of HIV-1 infection (p24 ELISA), T20-resistant panel, virus V38E, N42S; blocks gp41 NHR-CHR 6-HB formation [4]: 6.2 nM
IC50, inhibition of HIV-1 infection (p24 ELISA), HP23-resistant panel, virus wild-type; blocks gp41 NHR-CHR 6-HB formation [5]: 3.3 nM
IC50, inhibition of HIV-1 infection (p24 ELISA), HP23-resistant panel, virus E49K; blocks gp41 NHR-CHR 6-HB formation [6]: 13.4 nM
IC50, inhibition of HIV-1 infection (p24 ELISA), T20-resistant panel, virus V38A; blocks gp41 NHR-CHR 6-HB formation [7]: 2.1 nM
IC50, inhibition of HIV-1 infection (p24 ELISA), T20-resistant panel, virus V38A, N42D; blocks gp41 NHR-CHR 6-HB formation [8]: 2.9 nM
IC50, inhibition of HIV-1 infection (p24 ELISA), HP23-resistant panel, virus E49K/N126K; blocks gp41 NHR-CHR 6-HB formation [9]: 53.8 nM
IC50, inhibition of HIV-1 infection (p24 ELISA), T20-resistant panel, virus WT; blocks gp41 NHR-CHR 6-HB formation [10]: 3.1 nM
IC50, inhibition of HIV-1 infection (p24 ELISA), HP23-resistant panel, virus D36G/E49K/N126K; blocks gp41 NHR-CHR 6-HB formation [11]: > 60 nM
IC50, inhibition of HIV-1 infection (p24 ELISA), T2635-resistant panel, virus Q79E; blocks gp41 NHR-CHR 6-HB formation [12]: 4.2 nM
IC50, inhibition of HIV-1 infection (p24 ELISA), T2635-resistant panel, virus Q79E/N126K; blocks gp41 NHR-CHR 6-HB formation [13]: 5.2 nM
IC50, inhibition of HIV-1 infection (p24 ELISA), T2635-resistant panel, virus A6V; blocks gp41 NHR-CHR 6-HB formation [14]: 1.6 nM
IC50, inhibition of HIV-1 infection (p24 ELISA), T2635-resistant panel, virus Q66R/N113E; blocks gp41 NHR-CHR 6-HB formation [15]: 3.6 nM
IC50, inhibition of HIV-1 infection (p24 ELISA), T2635-resistant panel, virus N113E; blocks gp41 NHR-CHR 6-HB formation [16]: 2.3 nM
IC50, inhibition of HIV-1 infection (p24 ELISA), T2635-resistant panel, virus K90E/N126K; blocks gp41 NHR-CHR 6-HB formation [17]: 4.2 nM
IC50, inhibition of HIV-1 infection (p24 ELISA), T2635-resistant panel, virus N126K; blocks gp41 NHR-CHR 6-HB formation [18]: 8.6 nM
IC50, inhibition of HIV-1 infection (p24 ELISA), T2635-resistant panel, virus H3C; blocks gp41 NHR-CHR 6-HB formation [19]: 5.4 nM
IC50, inhibition of HIV-1 infection (p24 ELISA), T2635-resistant panel, virus Q66R; blocks gp41 NHR-CHR 6-HB formation [20]: 2.8 nM
IC50, inhibition of HIV-1 infection (p24 ELISA), T2635-resistant panel, virus K154Q; blocks gp41 NHR-CHR 6-HB formation [21]: 7.4 nM
IC50, inhibition of HIV-1 infection (p24 ELISA), T2635-resistant panel, virus K90E; blocks gp41 NHR-CHR 6-HB formation [22]: 9.4 nM
IC50, inhibition of HIV-1 infection (p24 ELISA), T2635-resistant panel, virus wild-type; blocks gp41 NHR-CHR 6-HB formation [23]: 2.8 nM
Tm of the 6-HB formed with N46 [24]: 81 °C

— publication PMC6150406, “Adding an Artificial Tail—Anchor to a Peptide-Based HIV-1 Fusion Inhibitor for Improvement of Its Potency and Resistance Profile” (Molecules : A Journal of Synthetic Chemistry and Natural …, 2017)
